Data set [1] concerns the target recombinant untagged PhaR protein of Bradyrhizobium diazoefficiens (Bradyrhizobium diazoefficiens). As to the kind of experiment: SEC; Superdex 75 10/300 GL, mIVT buffer at pH 8 (40 mM Tris-HCl, 150 mM KCl, 0.1 mM EDTA, 0.1 mM DTT), 200 uL of untagged PhaR at 5 to 30 uM, 0.5 mL/min; tetramer to monomers; the monomer peak increased at lower concentrations.
Data set [2] deals with T1, PhaR (Bradyrhizobium diazoefficiens USDA 110, UniProt Q89XT0 1-197).
T1 sequence: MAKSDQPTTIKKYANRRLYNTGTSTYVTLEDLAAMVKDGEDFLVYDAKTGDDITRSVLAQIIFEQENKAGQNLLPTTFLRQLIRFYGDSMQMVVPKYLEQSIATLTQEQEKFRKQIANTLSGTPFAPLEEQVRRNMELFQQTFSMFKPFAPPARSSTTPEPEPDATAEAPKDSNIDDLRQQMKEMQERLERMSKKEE
As to the kind of experiment: EMSA; mIVT buffer: 40 mM Tris-HCl pH 7.0, 150 mM KCl, 0.1 mM EDTA, 0.1 mM DTT; 10 uL, 2 ng DNA, 0-2 uM PhaR, 30 min room temperature; 6% native PAGE 0.5X TBE, SYBR Gold. The note with it: protein: recombinant; tags: untagged (C-terminal intein-CBD removed, IMPACT); chain copies: 4; blunt.

Data set [3] deals with T1, PhaR. Description: EMSA; shift at 0.5 uM PhaR; mIVT buffer: 40 mM Tris-HCl pH 7.0, 150 mM KCl, 0.1 mM EDTA, 0.1 mM DTT; 10 uL, 2 ng DNA, 0-2 uM PhaR, 30 min room temperature; 6% native PAGE 0.5X TBE, SYBR Gold. The note with it: protein: recombinant; tags: untagged (C-terminal intein-CBD removed, IMPACT); chain copies: 4; blunt. A general note: In EMSA bound probe runs differently from free probe, usually more slowly.

Data set [4] has as its target T1, PhaR. As to the kind of experiment: EMSA; mutation did not affect interaction at 1-2 uM PhaR; mIVT buffer: 40 mM Tris-HCl pH 7.0, 150 mM KCl, 0.1 mM EDTA, 0.1 mM DTT; 10 uL, 2 ng DNA, 0-2 uM PhaR, 30 min room temperature; 6% native PAGE 0.5X TBE, SYBR Gold. The conditions noted are these: protein: recombinant; tags: untagged (C-terminal intein-CBD removed, IMPACT); chain copies: 4; blunt.

In general, stoichiometry N refers to the number of molecules, sites or subunits per partner or assembly.

Regarding “recombinant untagged PhaR protein of Bradyrhizobium diazoefficiens (natural protein)”, in data set [1], the stoichiometry N stood at 4.

B1: blr4358 oligo wild type (blr4358_EMSA_1) (dsDNA)
DNA 1: CGCCGGATCAGCCCGCCAAGATCAAGGCCGCGAAGAAGGTCTCCAA
DNA 2: TTGGAGACCTTCTTCGCGGCCTTGATCTTGGCGGGCTGATCCGGCG
On to B1, for which the binding result with PhaR [2] is “binds”.

B2: phaP1 67 bp wild type (5155_2) (dsDNA)
DNA 1: GATCTAGTTTTTGTGCGACGCACAAGATTCTTGACTTTTTTGTGCGTTGCACTAATTGTGGGCAGAG
DNA 2: CTCTGCCCACAATTAGTGCAACGCACAAAAAAGTCAAGAATCTTGTGCGTCGCACAAAAACTAGATC
In the case of B2, in the data set with PhaR [3], the binding result is recorded as “binds”.

B3: blr4358 oligo, long PhaR box mutated (blr4358_EMSA_2) (dsDNA)
DNA 1: CGCCGGATCAGCAATAAAATATAAATTAATATAAGAAGGTCTCCAA
DNA 2: TTGGAGACCTTCTTATATTAATTTATATTTTATTGCTGATCCGGCG
B3: the binding result in the data set with PhaR [4] is on record as “binds”.

For the origin of these results see publication PMC10888616, “Pleiotropic Effects of PhaR Regulator in Bradyrhizobium diazoefficiens Microaerobic Metabolism”.
